Here are results for one molecule from PMC8065039 (Communications Biology, 2021).

The target of assay [1] is SARS-CoV-2 Spike-Trimer protein (Shuimu BioSciences Ltd.) (SARS-CoV-2, Wuhan-Hu-1 assumed, UniProt P0DTC2). As to the kind of experiment: BLI. To be noted: both partners purified.
For assay [2], the target named is recombinant SARS-CoV-2 Spike RBD (catalogue number not stated for this experiment) (SARS-CoV-2, UniProt P0DTC2). As to the kind of experiment: ELISA. To be noted: both partners purified.
Assay [3] deals with recombinant SARS-CoV-2 Spike S1 + S2 protein (40589-V08B1, Sino Biological) (SARS-CoV-2, Wuhan-1 (MN908947), UniProt P0DTC2). The experiment in a line: ELISA. The conditions noted are these: both partners purified.
For assay [4], the target named is extracellular domain of SARS-CoV-2 S protein (S-ECD), 1-1208 aa, with two proline substitutions, GSAS … (SARS-CoV-2, Wuhan-Hu-1, UniProt P0DTC2, proline substitution at residue 986 | proline substitution at residue 987 | …). The experiment in a line: cryo-EM structure. The conditions noted are these: both partners purified.
For assay [5], the target named is SARS-CoV-2 Spike protein on transfected CHO-K1 cells (GenScript RD00819) (SARS-CoV-2, UniProt P0DTC2). As to the kind of experiment: cell-based or functional assay.

B1: CA521^FALA (human IgG4 monoclonal antibody with the F234A/L235A mutation) (antibody, V domains shown)
VH: EVQLQQWGAGLLKPSETLSLTCAVYGGSFSGYYWSWIRQPPGKGLEWIGEVNHSGSTNYNPSLKSRVTISVDTSKNQLSLKLNSVTAADTAVYYCARGNTMVRGVIIPFEYWDKGTLVTVSS
VL: EIVLTQSPATLSLSPGERATLSCRASQSVSSYLAWYQQKPGQAPRLLIYDASNRATGIPARFSGSGSGTDFTLTISSLEPEDFAVYYCQQRSNWPLTFGGGTKVEIK
notes: also called CA521^FALA IgG; full-length CA521^FALA IgG; source: Expi-CHO Expression system, purified (protein A, Q FF, Capto S ImpAct)
One may read the Kd as the equilibrium constant for the complex coming apart. A low value points to higher affinity. For orientation: IC50 means the concentration that gives 50% inhibition. Usually EC50 stands for the concentration giving half of the maximal effect. In assay [1], B1 gave a Kd of less than 0.001 nM. In addition, in assay [2], the IC50 amounted to 0.343 nM. In addition, the EC50 in assay [3] was found to be 0.014 nM. For the same molecule, the binding result in assay [4] is recorded as “binds”. In addition, the “IC50 of inhibition of SARS-CoV-2 pseudovirus transduction into Huh-7 cells” value in assay [5] is 0.121 nM.
